Test results published in PMC11178795, “Hydrogen peroxide is required for light-induced stomatal opening across different plant species” (Nature Communications, 2024).
One block for each binder: values may come before it.

Experiments:
[1] = target: T1, GST-bZIP30 (Arabidopsis thaliana, UniProt Q9SIG8 1-519); experiment: pull-down; 1 μg GST fusion on glutathione beads incubated with 1 µg MBP or MBP fusion; 20 mM Tris-HCl pH 7.5, 100 mM NaCl, 1 mM EDTA; with or without 1 mM H2O2; room temperature; washes with 300 mM NaCl, 0.5% Triton X-100; anti-MBP immunoblot; settings: both partners purified
T1 construct: bZIP30 transcription factor, Arabidopsis, AT2G21230; full-length coding region without stop codon; destination vector pDEST15 (N-GST); source: Escherichia coli, purified (glutathione beads); not shown: GST, N-terminal, kept
T1 sequence (looked up): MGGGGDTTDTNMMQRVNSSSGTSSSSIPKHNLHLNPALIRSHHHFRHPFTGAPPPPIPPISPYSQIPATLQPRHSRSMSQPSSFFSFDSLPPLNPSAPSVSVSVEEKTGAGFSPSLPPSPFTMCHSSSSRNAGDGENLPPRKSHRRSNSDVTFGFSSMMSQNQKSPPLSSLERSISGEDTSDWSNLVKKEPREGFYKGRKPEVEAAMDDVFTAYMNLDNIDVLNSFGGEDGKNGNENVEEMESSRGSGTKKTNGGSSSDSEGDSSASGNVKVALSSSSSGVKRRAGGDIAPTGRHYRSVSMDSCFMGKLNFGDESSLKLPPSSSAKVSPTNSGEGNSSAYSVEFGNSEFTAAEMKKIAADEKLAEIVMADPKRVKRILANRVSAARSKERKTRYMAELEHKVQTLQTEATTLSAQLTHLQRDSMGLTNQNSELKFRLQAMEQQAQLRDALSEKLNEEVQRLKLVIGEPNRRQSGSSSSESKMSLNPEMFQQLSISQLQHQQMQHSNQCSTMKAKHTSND

[2] = target: T2, GST-bZIP30 (Arabidopsis thaliana (Mouse-ear cress), UniProt Q9SIG8); experiment: GST pull-down; binding enhanced by 1 mM H2O2 (oxidation of BZR1, Cys63)
T2 chain: T1 sequence (looked up)

[3] = target: T3, MBP-bZIP30 (Arabidopsis thaliana, UniProt Q9SIG8 1-519); experiment: pull-down; 1 μg GST fusion on glutathione beads incubated with 1 µg MBP or MBP fusion; 20 mM Tris-HCl pH 7.5, 100 mM NaCl, 1 mM EDTA; with or without 1 mM H2O2; room temperature; washes with 300 mM NaCl, 0.5% Triton X-100; anti-MBP immunoblot; settings: both partners purified
T3 construct: bZIP30 transcription factor, Arabidopsis, AT2G21230; full-length coding region without stop codon; destination vector pMAL2CGW (N-MBP); source: Escherichia coli, purified (amylose resin); not shown: MBP, N-terminal, kept
T3 sequence (looked up): T1 sequence (looked up)

binding result [1]: binds
B1: MBP-KIN10 (enzyme, Arabidopsis thaliana, UniProt Q38997 1-512, looked up)
chain: MDGSGTGSRSGVESILPNYKLGRTLGIGSFGRVKIAEHALTGHKVAIKILNRRKIKNMEMEEKVRREIKILRLFMHPHIIRLYEVIETPTDIYLVMEYVNSGELFDYIVEKGRLQEDEARNFFQQIISGVEYCHRNMVVHRDLKPENLLLDSKCNVKIADFGLSNIMRDGHFLKTSCGSPNYAAPEVISGKLYAGPEVDVWSCGVILYALLCGTLPFDDENIPNLFKKIKGGIYTLPSHLSPGARDLIPRMLVVDPMKRVTIPEIRQHPWFQAHLPRYLAVPPPDTVQQAKKIDEEILQEVINMGFDRNHLIESLRNRTQNDGTVTYYLILDNRFRASSGYLGAEFQETMEGTPRMHPAESVASPVSHRLPGLMEYQGVGLRSQYPVERKWALGLQSRAHPREIMTEVLKALQDLNVCWKKIGHYNMKCRWVPNSSADGMLSNSMHDNNYFGDESSIIENEAAVKSPNVVKFEIQLYKTRDDKYLLDLQRVQGPQFLFLDLCAAFLAQLRVL
notes: KIN10, catalytic subunit of SnRK1, Arabidopsis, AT3G01090; full-length coding region without stop codon; destination vector pMAL2CGW (N-MBP); source: Escherichia coli, purified (amylose resin); not shown: MBP, N-terminal, kept

binding result [2]: binds
binding result [1]: binds
B2: MBP-BZR1 (natural protein, Arabidopsis thaliana, UniProt Q8S307 1-336, looked up)
chain: MTSDGATSTSAAAAAAAAAAARRKPSWRERENNRRRERRRRAVAAKIYTGLRAQGDYNLPKHCDNNEVLKALCVEAGWVVEEDGTTYRKGCKPLPGEIAGTSSRVTPYSSQNQSPLSSAFQSPIPSYQVSPSSSSFPSPSRGEPNNNMSSTFFPFLRNGGIPSSLPSLRISNSCPVTPPVSSPTSKNPKPLPNWESIAKQSMAIAKQSMASFNYPFYAVSAPASPTHRHQFHTPATIPECDESDSSTVDSGHWISFQKFAQQQPFSASMVPTSPTFNLVKPAPQQMSPNTAAFQEIGQSSEFKFENSQVKPWEGERIHDVGMEDLELTLGNGKARG
notes: BRASSINAZOLE-RESISTANT1 (BZR1), Arabidopsis, AT1G75080; full-length coding region without stop codon; destination vector pMAL2CGW (N-MBP); source: Escherichia coli, purified (amylose resin); not shown: MBP, N-terminal, kept

binding result [3]: binds
B3: GST-BZR1 (natural protein, Arabidopsis thaliana, UniProt Q8S307 1-336, looked up)
chain: B2 chain
notes: BRASSINAZOLE-RESISTANT1 (BZR1), Arabidopsis, AT1G75080; full-length coding region without stop codon; destination vector pDEST15 (N-GST); source: Escherichia coli, purified (glutathione beads); not shown: GST, N-terminal, kept
